The text below walks through data of patent US20150079113A1 (MIT, published 2015).

First the molecules themselves.
B1: GFP-MenaΔLERER (other, UniProt Q03173-3 1-541, looked up)
chain: MSEQSICQARAAVMVYDDANKKWVPAGGSTGFSRVHIYHHTGNNTFRVVGRKIQDHQVVINCAIPKGLKYNQATQTFHQWRDARQVYGLNFGSKEDANVFASAMMHALEVLNSQEAGPTLPRQNSQLPAQVQNGPSQEELEIQRRQLQEQQRQKERMSNAAAPASAETPLNPELGDSSASEPGLQAASQPAESPTPQGLVLGPPAPPPPPPLPSGPAYASALPPPPGPPPPPPLPSTGPPPPPPPPPPLPNQAPPPPPPPPAPPLPASGIFSGSTSEDNRPLTGLAAAIAGAKLRKVSRVEDGSFPGGGNTGSVSLASSKADAGRGNGPLPLGGSGLMEEMSALLARRRRIAEKGSTIETEQKEDRNEDAEPITAKAPSTSTPEPTRKPWERTNTMNGSKSPVISRPKSTPSSQPSANGVQTEGLDYDRLKQDILDEMRKELAKLKEELIDAIRQELSKSNTA
notes: Expressed in MVD7 cells; also called Mena mutant lacking the LERER repeat; not shown: GFP tag
B2: GFP-tagged EVH1 domain of Mena (other, UniProt Q03173 1-112, looked up)
chain: MSEQSICQARAAVMVYDDANKKWVPAGGSTGFSRVHIYHHTGNNTFRVVGRKIQDHQVVINCAIPKGLKYNQATQTFHQWRDARQVYGLNFGSKEDANVFASAMMHALEVLN
notes: domain: EVH1 domain; not shown: GFP tag
B3: α5 integrin (endogenous) (receptor, mouse, UniProt P11688 45-1053, looked up)
chain: FNLDAEAPAVLSGPPGSLFGFSVEFYRPGRDGVSVLVGAPKANTSQPGVLQGGAVYVCPWGTSPIQCTTIQFDSKGSRILESSLYSAKGEEPVEYKSLQWFGATVRAHGSSILACAPLYSWRTEKDPQNDPVGTCYLSTENFTRILEYAPCRSDFGSAAGQGYCQGGFSAEFTKTGRVVLGGPGSYFWQGQILSATQEQISESYYPEYLINPVQGQLQTRQASSVYDDSYLGYSVAVGEFSGDDTEDFVAGVPKGNLTYGYVTVLNGSDIHSLYNVSGEQMASYFGYAVAATDTNGDGLDDLLVGAPLLMERTADGRPQEVGRVYIYLQRPAGIDPTPTLTLTGQDEFSRFGSSLTPLGDLDQDGYNDVAIGAPFGGEAQQGVVFIFPGGPGGLSTKPSQVLQPLWAAGRTPDFFGSALRGGRDLDGNGYPDLIVGSFGVDKALVYRGRPIISASASLTIFPSMFNPEERSCSLEGNPVSCINLSFCLNASGKHVPNSIGFEVELQLDWQKQKGGVRRALFLTSKQATLTQTLLIQNGAREDCREMKIYLRNESEFRDKLSPIHIALNFSLDPKAPMDSHGLRPVLHYQSKSRIEDKAQILLDCGEDNICVPDLQLDVYGEKKHVYLGDKNALNLTFHAQNLGEGGAYEAELRVTAPLEAEYSGLVRHPGNFSSLSCDYFAVNQSRQLVCDLGNPMKAGTSLWGGLRFTVPHLQDTKKTIQFDFQILSKNLNNSQSNVVSFPLSVEAQAQVSLNGVSKPEAVIFPVSDWNPQDQPQKEEDLGPAVHHVYELINQGPSSISQGVLELSCPQALEGQQLLYVTKVTGLSNCTSNYTPNSQGLELDPETSPHHLQKREAPGRSSTASGTQVLKCPEAKCFRLRCEFGPLHRQESRSLQLHFRVWAKTFLQREYQPFSLQCEAVYEALKMPYQILPRQLPQKKLQVATAVQWTKAEGSNGVPLWIIILAILFGLLLLGLLIYVLYKLGFFKRSLPYGTAMEKAQLKPPATSDA
notes: whole, on cells; Present in cells as the α5β1 heterodimer; detected by immunofluorescence or immunoprecipitated from lysates; also called endogenous α5; alpha5 integrin
B4: Purified His-tagged LERER repeat protein (His-LERER) (other, mouse, UniProt Q03173 175-252, looked up)
chain: LERERMERERLERERLERERLERERLEQEQLERQRQEREHVERLERERLERLERERQERERERLEQLEREQVEWERER
notes: domain: LERER repeat; Expressed and purified from E. coli (pQE80L-His-LERER); also called LERER repeat region of Mena; not shown: His tag of the pQE80L vector
B5: β1 integrin (endogenous) (receptor, mouse, UniProt P09055 21-798, looked up)
chain: QTDKNRCLKANAKSCGECIQAGPNCGWCTNTTFLQEGMPTSARCDDLEALKKKGCQPSDIENPRGSQTIKKNKNVTNRSKGMAEKLRPEDITQIQPQQLLLKLRSGEPQKFTLKFKRAEDYPIDLYYLMDLSYSMKDDLENVKSLGTDLMNEMRRITSDFRIGFGSFVEKTVMPYISTTPAKLRNPCTSEQNCTSPFSYKNVLSLTDRGEFFNELVGQQRISGNLDSPEGGFDAIMQVAVCGSLIGWRNVTRLLVFSTDAGFHFAGDGKLGGIVLPNDGQCHLENNVYTMSHYYDYPSIAHLVQKLSENNIQTIFAVTEEFQPVYKELKNLIPKSAVGTLSGNSSNVIQLIIDAYNSLSSEVILENSKLPDGVTINYKSYCKNGVNGTGENGRKCSNISIGDEVQFEISITANKCPNKESETIKIKPLGFTEEVEVVLQFICKCNCQSHGIPASPKCHEGNGTFECGACRCNEGRVGRHCECSTDEVNSEDMDAYCRKENSSEICSNNGECVCGQCVCRKRDNTNEIYSGKFCECDNFNCDRSNGLICGGNGVCRCRVCECYPNYTGSACDCSLDTGPCLASNGQICNGRGICECGACKCTDPKFQGPTCETCQTCLGVCAEHKECVQCRAFNKGEKKDTCAQECSHFNLTKVESREKLPQPVQVDPVTHCKEKDIDDCWFYFTYSVNGNNEAIVHVVETPDCPTGPDIIPIVAGVVAGIVLIGLALLLIWKLLMIIHDRREFAKFEKEKMNAKWDTGENPIYKSAVTTVVNPKYEGK
notes: whole, on cells

In experiment [1] the target is B3. Put plainly: recruitment of α5 to mitochondria in cells expressing FP4-Mito, immunofluorescence.
Description: Microscopy—Cells were fixed in 4% paraformaldehyde in PHEM buffer warmed to 37° C. for 20 minutes. Cells were permeabilized in 0.2% TX-100 and blocked in 10% Donkey Serum. […] (Abcam ab25247), integrin αv [RMV-7] (Abcam ab63490), integrin α6 [GoH3] […] F-actin was stained with AlexaFluor Phalloidin (Invitrogen). Z series of images were taken on an Olympus microscope with a 60× plan apo objective. Images were deconvolved using Deltavision Softworx software.
In experiment [2] the target is B3. Kind of experiment: cell-based or functional assay.
The target of experiment [3] is p34 subunit of Arp2/3 (endogenous) (UniProt Q9CVB6 1-300). Put plainly: α5 immunoprecipitation from NIH3T3 cell lysates, western blot. For orientation: In western blotting, separated proteins are transferred to a membrane and probed.
Excerpt: To determine if endogenously expressed Mena and α5 integrin form complexes within cells, α5 integrin was immunoprecipitated from NIH3T3 cell lysates followed by Western blot analysis (FIG. 2B).
Western Blotting/Immunoprecipitation. Standard procedures were used for protein electrophoresis, western blotting and immunoprecipitations. Western blots were developed using HRP secondary antibodies and ECL reagent (Amersham). […] Beads were washed three times in lysis buffer, and proteins were eluted in sample buffer.
Another experiment concerns the target T1, Purified GST (UniProt P08515 1-218 = GST).
T1 construct: Control bait in the pull-down assay
Kind of experiment: GST pull-down with purified proteins, western blot with anti-His.

Experiment [4] concerns the target B3. Kind of experiment: recruitment to mitochondria in cells expressing FP4-Mito, immunofluorescence.
Description: Microscopy—Cells were fixed in 4% paraformaldehyde in PHEM buffer warmed to 37° C. for 20 minutes. Cells were permeabilized in 0.2% TX-100 and blocked in 10% Donkey Serum. […] (Abcam ab25247), integrin αv [RMV-7] (Abcam ab63490), integrin α6 [GoH3] […] F-actin was stained with AlexaFluor Phalloidin (Invitrogen).

T1 sequence (P08515 whole entry): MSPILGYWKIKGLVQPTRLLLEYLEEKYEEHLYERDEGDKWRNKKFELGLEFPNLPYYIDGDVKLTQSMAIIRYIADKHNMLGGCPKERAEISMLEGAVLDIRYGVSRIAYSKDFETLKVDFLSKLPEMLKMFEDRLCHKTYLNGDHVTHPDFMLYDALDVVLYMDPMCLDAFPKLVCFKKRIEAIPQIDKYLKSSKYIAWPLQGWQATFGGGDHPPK
Description for Purified GST: After incubation, GST- and GST-α5 beads containing the His-LERER bound fraction were recovered and analyzed by western blotting along with aliquots of unbound protein from the supernatant.
Binding Assays: GST-α5 integrin constructs and His-tagged variants of the LERER repeat region were expressed and purified from E. Coli. 10 nM α5 integrin cytoplasmic tail was immobilized on Glutathione beads and incubated for 1 hour, 4° C. with 200 nM His-LERER variants at constant agitation in PBS with 0.1% TritonX-100 and 2 mM βME. Beads were washed three times, and proteins were eluted in sample buffer, and assayed by western blot.

On to B1, for which the binding result with α5 integrin (endogenous) [1] is “no binding”. Besides, in the experiment with α5 integrin (endogenous) [2], the “t1/2 of fluorescence recovery (FRAP) in nascent, peripheral adhesions, cells plated for 30 minutes on FN” value was 11.9 s. For B2, in the experiment with α5 integrin (endogenous) [1], the binding result is listed as “no binding”. As to B3, the binding result in experiment [3] is recorded as “no binding”. Consider B4, for which the binding result with Purified GST is reported as “no binding (tested: 200 nM His-LERER variants)”.

As to B5, in the experiment with α5 integrin (endogenous) [4], the binding result is on record as “binds”.
